The text below walks through data of article PMC3642142.

This test deals with IAEDANS-labeled K75C mutant calmodulin (UniProt P0DP23). The experiment in a line: other fluorescence titration; IAEDANS emission (excitation 340 nm, emission 475 nm) of about 1 nM I-CaM; LSEL15 titrated; 10 mM MOPS pH 7.4, 100 mM NaCl, 0.3 mM CaCl2, 0.1 mg/ml BSA.

As for “Peptide LSEL15 (L-selectin residues Ala311-Lys325)”, the Kd was 3.8 nM.
